The DeepSol protein solubility set

Assay: soluble on expression in E. coli; label from the status in PepcDB or PDB records

Row | Sequence | soluble on expression in E. coli
1 | MSLNNKVIKKEVEEYLSRYFEGKDNYNKRVYESMNYSLNAGGKRVRPLLLLASYAIYNKDYKEVIDIAAAIEMIHTYSLIHDDLPCMDNDDLRRGRPTNHKIFGYSIALLAGDGLLNEAMNIMFKYCIGKGEEALKACLMISKAASSDGMIGGQVVDILSEGKKINEDELRYMHKKKTGELIKAAVVSGAILGGAPLHDVELLSQYGDKLGLAFQIEDDILDIIGDTKIMGKTSKSDLENDKCTYVTLYGIDKCKSICRELTDECLDIIGKIQGNTELLKEITELLLKRNREGHHHHHH | soluble
2 | MSLNPSKKKNNFNMQDPFAWQKINKQIRDANASQLDVLAKEFDTQETLPIYAYILERKNNFKKHYFIMPYYDNIKDYNKTRQALILAIARQESRFIPTAISVSYALGMMQFMPFLANHIGEKELKIPNFDQDFMFKPEIAYYFGNYHLNYLESRLKSPLFVAYAYNGGIGFTNRMLARNDMFKTGKFEPFLSMELVPYQESRIYGKKVLANYIVYRHLLNDSIKISDIFENLIQNKANDLNKEGHHHHHH | not soluble
3 | MSLNQGEQLPGNYRVEIYLNGEKVDVGEFPFHRPESPEEKELVPCLTVDDLIHYGIKIDKSSSDTDNKKNQCFKWNSIEGLKVNYDFDSQRVQITVPQLYLQDKKSSLAPVSLWNEGVAAFRMVYQTNIDISKQNDNQSTTRNSRYGRFTPGFNLGAWRFRSSVTWSKELGQSERWQRGYMWFERGINAIKSRLTLGESYTSSEVFDSIPFRGGMLATDDAMTPPEDSYYTPVVHGIAQSEAQVIIKQNGQIIFTRSVPPGPFALDNLPTLAVGGELDVTVRESNGEEQYFSVPFQTPAIALHEGYFKYSVMGGNIKKKEGHHHHHH | not soluble
4 | MSLNQLTDHVTLRHGATLNNRIVMSPMQTHSGLKGGFASDDTIQYYSARSRAAGMLITEFHYVSENGGPAYVPGYPEQLGAYSDAHLEGLRKTVQALKKDGNKAILQIHHAGRAAVGRHVNGLDVVAPSAIDFSFLDYPVRELTITEIDDIILDFGKATKRAIDAGFDGVEIHGANHYLIQQFFSKLSNLRTDKWGGSLNKRMAFPLAVVKEVKAIVDEYAPKGFIIGYRISPEELHGKNVGYDYTEALTLISEVIKYELDYIHLSLWAGYNSKPENSEKSYAELFKEILDDKTKLLIVGGIFGEDTATDAIENYADLIAVARGTLIDPNFAKKVTEGKGDTILHKISPETVEYSHLTPGLLEAFSREDSLGLPPLPGGETIRHLHTGKYDEGHHHHHH | soluble
5 | MSLNRDKPLKVMLVAAEASGDALGAGLAKALRARLGQGVTFVGIGGAKMAEQGVQSPFDIAQLSILGILESLKAYPRAMARLKDTVALAAREKPDVAVLIDSWGFNIRLAHALRRLDPTLPLVKYVAPQVWAYREGRAQALAKAVDLLLSIQPMDKAYFDAAGLQNVFVGNSALAKRFDHADPGRLRAAIGAAASQQILLVLPGSRPSEIERVMPAFEDAVRRLKVERPDLHIVVPAAYTVAEAVKARVAGWPFRAHVIEDEGLKDDAFLAGDVALACSGTVTTELALAGRPMVVGYKTGAVTYAIVKRLMKPRWITLFNIAAGKAVAPELIQHACEGEGLAREVALRLDDPDLRQRQTAEQYAALDRMGRGMPDPSEAAAEALLDFLSARGALGREGHHHHHH | not soluble
6 | MSLNREFDVTAPNQVWCGDITYIWAQGKWHYLAVVMDLYARRVLGWAFSKKSDTDLVIKALDMAYEQRGKPQGLLFHSDQGAQYGSRQFRKRLWRYRVRQSMSRRGNCYDNSPMARVFRSLKTEWIPAVGYMTAQEAQGDISHYLMHRYNRVRPHQFNDGLAPAQYEKTLTSEGHHHHHH | not soluble
7 | MSLNRPLRIGIVVGELSGDTLGEGFIKAIRARYPDAEFVGIGGPKMNALGCQSLFDMEELAVMGLVEVLGRLPRLLKVKAELVKYFTANPPDVFVGIDAPDFNLRLELSLKQAGIKTVHYVSPSVWAWRQNRIHGIAAATHLVLAFLPFEKAFYDKFNVPCEFIGHTLADSIPLASDKLAARQLLGLDEQRRWLAVLPGSRGSEMKMLAEPFIATCQKLQARYPDLGFVVALVNAKRRAQFEQAWQQVAPELNFVLVDDTARNVITAADAVMLASGTVALECMLLKRPMVVGYRVNAFTAFLAKRLLKTPYVSLPNILAGEELVKELLQDHCTVDNLYHEVSRLLESDNQALMDKFTEMHQWIRKDADQQAAQAVLHLIQKEGHHHHHH | not soluble
8 | MSLNRVLDILKDRSLTYHQQIKDLAAYAESTIEVLNIDDETKKLIDEGCICTLFEGNAPFRPRYIIPDYSLLMEKGCEFLNLSVPEDIWEATNNLLIFYKHVPSITTFPVYLGNIDELLEPFIEDEREAKRAIKLFLKHIDRTLTDSFVHANIGPRETVAGRLILESMDELQCAVPNLSMKYDLENTPESFINLCAKVALSTAKPSFANHKMDVKSFGTDRYAIASCYNGFHIGGGGYTLVRIKLNEVAKKATSVEDFLENVLPYVSTKMIQYIDERIRFLVEETQFFTSNFLVKEGFIQKKLFTGMFGVVGLAEAVNTLLGAEKQSDRFGYSEKANKLGLRIIEKLNKIVSEHEAKHVNCFGGHYVLHAQVGIDLDQNVSPGCRIPVGEEPELFNHIMQSAPFHKYFYNGIGDIFVFEDTYNDHPEALVDIIKGAFNSGIRYMSVYGSGADVVRVTGYLAKRSEVEKLERGEAVLNNTDLFAMGAKNNCHAFERKIREGHHHHHH | soluble
9 | MSLNSESLGLLQEFLKTHKYKEFRDQAKNLRAPFILQAIVSTPTTVKYYTQGRLIKCCETDSTGNITTSYTYNDKGQLTTTLSVTEKNGQPINEVQTSRLYDPQGHCIFEVKTNPKTKTDFYRRARRIGIDGSIESDSLKYMDGRYTVSSYNKQGLLTETKEYNKNGEMEGYTVNKYDDKGRMTESQHQNMLFVNSPNQILSQKELYEYDKYGYLTRIVYQRIFGNSQKTSGCLTCLYDEYGNRIDGDSYYEYDNTGQWICRTSYDNPQQVERIQYIYKEGHHHHHH | not soluble
10 | MSLNSIKDVDLSEITAGKKYWNVERPVEEEVMYFLLIDRFHDGKERISIPSTTGFGNTDQLQARCGGTIQGVIKNLKYISALGFTSIWINPFLQNNPETYHGYSIENFLEVDAQWGTKEDIVELVAQAHKLHIKVFFDIVLNHTGNNWSYVKENPRYNKGKQYAVKAWRYPDRPIPAELRNLNLYGRKGGIVKWEETPETWDGDIFELKDLIQDDSEIGHATLEILIAVYSYWFAVTDCDGFRIDAAKHIPPKWLNTFVDAMKALTASVHKTSFFIFAEIISNQSYISKYHTIDGYLDFDFHFSFVPNMYGEKKRKSAIQSQPRPVDKVPIRFLDNHDQVGQMPKHRIAYRMKEKALCNLLRAFLCMPGIPCIYYGTEQGLKGKGILDGSIRECLFNPDGKEDILNLDSPYARVIKEGIHLRKKLNLYTGDFQSCEIMAAKSHRCIALQVNGLASSKLIVYNLGPHNEVVSIKLSSPLTRTNKLVVYLYSNGDADNDDKTVVNDILHNITMHPYGFKVLELLNHQESVNEGHHHHHH | soluble
11 | MSLNTREKYLSNVNRLVIKVGSSTLTHPSGLLNFYKIEHIVRQIADLHNQGIKVILVSSGAIGAGIGKLRLKERPKTIPEKQAAAAVGQGVLMHTYEKLFAEYGQIVGQILITREDLSSKKRVVNVQNTFSALLDHGIIPIVNENDATVVEEIKFGDNDTLSARVASLIKADLLILLSDIDGLYDSNPAVNKNAVLIDTVNEVNEEVKASAGGAGSKLGTGGMATKIRAAEIATENGISMVIANGEKQEAIRNILNFENEGTLFIPKNKEGHHHHHH | soluble
12 | MSLNYNTPKVSIVVPSLNSISYIRECIDSILNQTLKDIEILCIDANSTDGTLEVLKNYEKKDKRLRVIISDKKSYGYQMNLGIKEAKGEYLGIVESDDYIKTNMYERLYEIAKKNDCEVVKGDFYIFAYGKTEYVNVLRNSCEDIYNYKVNWNKDIRIFLGSDGINPIGIYRLDLLRTNQIKLNETPGASYQDNGLWFQIFALAKSIYFINEAFYMLRRDNPNSSVKSKEKVYCACEEYDFIRDFLKKHPDLEKTLAPICALHRFGNYMFTLERIDERYKLDFLKRFSQDFRKILKDKELDENLFGNINMQRINKIIENPVIYYYFSRGARARLQNQLVYRLGKVVVEAKSFNKIIKLPFLMLKICLEHNFEHKVYRSIVQFRPDLKLLPLECYLDYHEALVIKEHLSYKFGKLILLSFKGWYKGKIFILPFMLKKRYKEYKNKMEGHHHHHH | soluble
13 | MSLQEIIGASLVFLCNEKCEVLEDYGVVFDEKIVEIGDYQSLTLKYPHLKAQFFENSVLLPAFINAHTHFEFSNNKASFDYGSFSGWLGSVLNNGGAILENCQGAIQNAISTQLKSGVGSVGAISNHLIEVNLLKESPLNAVVFLEFLGSSYSLEKLKAFEAKFKELKDLEDKKLKAALAVHAPYSVQKDMALSVIQLAKDSQSLLSTHFLESLEELEWVENSKGWFENFYQHFLKESHFKSLYKGANDYIDMFKDTHTLFVHNQFASLEALKRIKSQVKNAFLITCPFSNRLLSGQALDLERTKEAGLSVSVATDGLSSNISLSLLDELRAFLLTHNMPLLELAKIALLGATRHGAKALALNNGEIEANKRADLSVFGFNEKFTKEQAILQFLLHAKEVECLFLGGKRVIEGHHHHHH | soluble
14 | MSLQELPVPKPHQLKWHEAEMGAVFHYDLHVFDGIRYGQGNNRINPIEDYNIFNPTELNTDQWVQAAKAAGCKFAVLTATHETGFGLWQSDVNPYCLKAVKWRDGKGDIVRDFVNSCRKYGLQPGIYIGIRWNSLLGIHNFKAEGEGAFARNRQAWYKRLCEKMVTELCTRYGDLYMIWFDGGADDPRADGPDVEPIVNKYQPNCLFYHNIDRADFRWGGSETGTVEYPCWSTFPVPCSHHKRIESSIDQLELLKHGDKNGRYWVPAMADTPLRGANGRHEWFWEPDDENNIYPLNTLMDKYEKSVGRNATLILGLTPDPTGLIPAGDAQRLKEMGDEINRRFSSPIARISGQKKSLTLKLGKEQSVNYCIIQENIKNGERIRQYQIEAKVNGKWQTVCKGESVGHKRIEKFEPVEATALRLTVSESIALPDIINFSAYSVKEGHHHHHH | soluble
15 | MSLQFVSKARKGLVPQRCHRFQSCAYRSNQWRYRGRCDSIQFAVDKRVFIAGFGLYGSSCGSAEYSAKIEMKRQGVVLGQNLSKYFSDGSSNTFPVWFEYPVQIEPDTFYTASVILDGNELSYFGQEGMTEVQCGKVTVQFQCSSDSTNGTGVQGGQIPELIFYAEGHHHHHH | not soluble
16 | MSLQIVPYLIFNGNCREAFSCYHQHLGGTLEAMLPFGDSPECGDIPADWKDKIMHARLVVGSFALMASDNHPAYPYEGIKGCSISLNVDSKAEAERLFNALAEGGSVQMPLGPTFWAASFGMFTDRFGVAWMVNCEQDREGGSHHHHHH | soluble
17 | MSLQKTSFALLVAALQLASASALAATPPVADAIWFNGPIITIDDQHPKAQAVAVKDGKILAVGDRQHVLKNKGPATQMLDLKGATLLPGFVDPHGHVSMVGFQAASANLLPPPDGTNNSIPGLQETLRRFEQQSPIPKQFGVLFGFGYDDSQLQEQRHPTKADLDAVTRDLPIAIVHQSSHLGVLNSKALELAGIDASTPNPEGGVIRRVDGSQEPNGVLEENAFFNALIRIFPKLTADQAVDMLSAGQKLYVSYGYTTIQDGRSSPDQVKTAIKAAGDGKLLADIVSYPDILTPGVKQLMVAPWYHPSNQPVVYNQHFRIGGVKLTLDGSPQGKTAWLSQPYFKPPQGQDASYAGYGVVKDADALAIYKEALANRWQILSHTNGDRAIDQLLGSMRAAEQAYPGVDVRPVMIHGQTLRKDQVAELKQLKIFPSLFPMHTYYWGDWHRQSVLGPERAENISPTQWVLQAGMKFTTHHDAPVALPDSMRVLAATVNRTTRSGYVLGPDQRVTPLQALKAMTLWSAYQHFEEDRKGSITPGKLADFAVLSANPLTVKPETLSEIQVLKTVKEGRVIYERPAKVASEGHHHHHH | soluble
18 | MSLQLRSRAAFKLEFLLDRYRVVRKGDAVIEIGSSPGGWTQVLNSLARKIISIDLQEMEEIAGVRFIRCDIFKETIFDDIDRALREEGIEKVDDVVSDAMAKVSGIPSRDHAVSYQIGQRVMEIAVRYLRNGGNVLLKQFQGDMTNDFIAIWRKNFSSYKISKPPASRGSSSEIYIMFFGFKAEGHHHHHH | soluble
